Test results: article doi:10.1101/2024.10.24.620088
Values joined by “and” are separate entries in the source; they are usually repeats but may differ in a detail not shown here. Equal values may be shown once. Read-outs that look alike come from different tables or passages of the source.

Experiments:
Test in all cases: cryo-EM structure
[1] = molecular target: DUF4297 from Bacillus ap. HMH5848 (Bacillus ap. HMH5848)
[2] = molecular target: DUF4297 from Bacillus ap. HMH5848 (Bacillus ap. HMH5848); remark: listed apart in the source
[3] = molecular target: HerA from Bacillus ap. HMH5848 (Bacillus ap. HMH5848)
[4] = molecular target: HerA from Bacillus ap. HMH5848 (Bacillus ap. HMH5848); remark: listed apart in the source

Row | Substance | stoichiometry N [1] | stoichiometry N [2] | stoichiometry N [3] | stoichiometry N [4]
1 | DUF4297 from Bacillus ap. HMH5848 (natural protein) | 12 and 4 and 6 | 12 |  | 
2 | HerA from Bacillus ap. HMH5848 (enzyme) |  |  | 6 | 6
